Target: the molecule itself
Assay: SEC-MALS

B1: AtYoeB toxin (Atu2017) from Agrobacterium tumefaciens, GST-His tag removed (natural protein)
chain: MKLVWTLSSWDDYEFWQRTDARMVEKINDLIRNAKRTPFAGLGKPEPLKGDMAGYWSRRITAEHRFVYRVSGSGSEQRLEVIQCRFHYQ
notes: source: E. coli BL21 (DE3), purified (NiNTA, HRV3c PreScission cleavage, Superdex 75); not shown: GST, C-terminal, cleaved
- stoichiometry N: 2
